Here are results for two molecules from patent publication US20220372114A1 (CURIA IP, published 2022).

Values joined by “and” are separate entries in the source; they are usually repeats but may differ in a detail not shown here. Equal entries are not always repeated.

In assay [1] the target is SARS-CoV-1 spike on pseudovirus (SARS-CoV-1, UniProt P59594 14-1255). Put plainly: cell-based or functional assay.
Assay [2] has as its target T1, SARS-CoV-1 spike trimer (SARS-CoV-1, UniProt P59594 14-1195). Kind of assay: ELISA, plate-coated SARS-CoV-1 spike. In general terms: ELISA stands for enzyme-linked immunosorbent assay.
For assay [3], the target named is T1, SARS-CoV-1 spike trimer. Kind of assay: ELISA, plate-coated SARS-CoV-1 spike, purified mouse antibody.

B1: 10-B13-A (human Fc IgG2 chimera) (antibody, V domains shown)
VH: QVQLQQSGAELVKPGASVKISCKASGYAFSNYWMNWVKQRPGKGLEWIGQIYPGDGDTNYNGNFKGKATLTADKSSSTAYIQLSSLTSEDSAVYFCGRGFIATVVEVFDHWGLGTTLTVSS
VL: DIQMTQTTSSLSASLGDRVTISCRASQDISNYLNWYQQKPDGTVKLLIYYTSRLQSGVPSRFSGSGTGTDYSLTISNLEQEDIATYFCQQGNTLPWTFGGGTKLEIK
For the molecule B1, the “IC50, SARS-CoV-1 pseudovirus ACE2+TMPRSS2+ target cell infection assay” value in assay [1] is ~33 ug/ml and ~220 nM.

B2: 10-B13-A (antibody, V domains shown)
VH: QVQLQQSGAELVKPGASVKISCKASGYAFSNYWMNWVKQRPGKGLEWIGQIYPGDGDTNYNGNFKGKATLTADKSSSTAYIQLSSLTSEDSAVYFCGRGFIATVVEVFDHWGLGTTLTVSS
VL: DIQMTQTTSSLSASLGDRVTISCRASQDISNYLNWYQQKPDGTVKLLIYYTSRLQSGVPSRFSGSGTGTDYSLTISNLEQEDIATYFCQQGNTLPWTFGGGTKLEIK
Consider B2, for which the EC50 with SARS-CoV-1 spike trimer [2] is ~1000 pM; in the assay with SARS-CoV-1 spike trimer [3] it was 960 pM.

By EC50 is commonly meant the concentration needed to bring the measured effect to its halfway point. Low readings indicate higher potency in that assay, high ones lower potency in that assay.
